Experimental data from PMC6405930, “Conservation of the Amyloid Interactome Across Diverse Fibrillar Structures” (Scientific Reports, 2019).

B1: Ig γ -3 chain C region: plasma/CSF protein bound to fibrils (protein, UniProt P01860 1-446, looked up)
Immunoglobulin heavy constant …: ASTKGPSVFPLAPCSRSTSGGTAALGCLVKDYFPEPVTVSWNSGALTSGVHTFPAVLQSSGLYSLSSVVTVPSSSLGTQTYTCNVNHKPSNTKVDKRVELKTPLGDTTHTCPRCPEPKSCDTPPPCPRCPEPKSCDTPPPCPRCPEPKSCDTPPPCPRCPAPELLGGPSVFLFPPKPKDTLMISRTPEVTCVVVDVSHEDPEVQFKWYVDGVEVHNAKTKPREEQYNSTFRVVSVLTVLHQDWLNGKEYKCKVSNKALPAPIEKTISKTKGQPREPQVYTLPPSREEMTKNQVSLTCLVKGFYPSDIAVEWESSGQPENNYNTTPPMLDSDGSFFLYSKLTVDKSRWQQGNIFSCSVMHEALHNRFTQKSLSLSPELQLEESCAEAQDGELDGLWTTITIFITLFLLSVCYSATVTFFKVKWIFSSVVDLKQTIIPDYRNMIGQGA
B2: Histidine-rich glycoprotein (protein, UniProt P04196 19-525, looked up)
Histidine-rich glycoprotein: VSPTDCSAVEPEAEKALDLINKRRRDGYLFQLLRIADAHLDRVENTTVYYLVLDVQESDCSVLSRKYWNDCEPPDSRRPSEIVIGQCKVIATRHSHESQDLRVIDFNCTTSSVSSALANTKDSPVLIDFFEDTERYRKQANKALEKYKEENDDFASFRVDRIERVARVRGGEGTGYFVDFSVRNCPRHHFPRHPNVFGFCRADLFYDVEALDLESPKNLVINCEVFDPQEHENINGVPPHLGHPFHWGGHERSSTTKPPFKPHGSRDHHHPHKPHEHGPPPPPDERDHSHGPPLPQGPPPLLPMSCSSCQHATFGTNGAQRHSHNNNSSDLHPHKHHSHEQHPHGHHPHAHHPHEHDTHRQHPHGHHPHGHHPHGHHPHGHHPHGHHPHCHDFQDYGPCDPPPHNQGHCCHGHGPPPGHLRRRGPGKGPRPFHCRQIGSVYRLPPLRKGEVLPLPEANFPSFPLPHHKHPLKPDNQPFPQSVSESCPGKFKSGFPQVSMFFTHTFPK
B3: Apolipoprotein A-IV: plasma/CSF protein bound to fibrils (protein, UniProt P06727 21-396, looked up)
Apolipoprotein A-IV: EVSADQVATVMWDYFSQLSNNAKEAVEHLQKSELTQQLNALFQDKLGEVNTYAGDLQKKLVPFATELHERLAKDSEKLKEEIGKELEELRARLLPHANEVSQKIGDNLRELQQRLEPYADQLRTQVSTQAEQLRRQLTPYAQRMERVLRENADSLQASLRPHADELKAKIDQNVEELKGRLTPYADEFKVKIDQTVEELRRSLAPYAQDTQEKLNHQLEGLTFQMKKNAEELKARISASAEELRQRLAPLAEDVRGNLRGNTEGLQKSLAELGGHLDQQVEEFRRRVEPYGENFNKALVQQMEQLRQKLGPHAGDVEGHLSFLEKDLRDKVNSFFSTFKEKESQDKTLSLPELEQQQEQQQEQQQEQVQMLAPLES

Legend:
C-36 fibrils [1] = target: T1, C-36 fibrils (Homo sapiens, UniProt P01009); experiment: Fibril incubation with plasma, quantitative MS/MS of bound proteins; assay type: binding; design: key to Identification status of plasma protein bound: C-36: *: Identified, but not quantified; —: Not identified in any of the samples; conditions: for Identification status of plasma protein bound: C-36: symbol cells
T1 construct: the 36 residue C-terminal fragment of α1-antitrypsin (C-36)
Procedure: (§1) Plasma and CSF solutions were centrifuged (40,000 g, 20 min) to remove any aggregates. The protein concentration was determined using 280 nm absorbance assuming 1 Abs = 1 mg/mL. […] Control samples (without fibril material) were prepared similarly. All samples were incubated at room temperature for one hour under gentle agitation. Fibrils and fibril-bound proteins were pelleted by centrifugation at 17,000 g for 30 minutes. The supernatant (175 μL) was removed and the aggregate was re-suspended in 175 μL PBS and pelleted again before further preparation for gel analysis and spin-filter assisted digest for quantitative MS/MS.
(§2) The fibril-protein pellets were transferred to spin-filters (0.22 μm), washed twice in PBS (100 μL) and once in 1 M NaCl (100 μL). The fibrils and fibril-bound proteins were dissolved by one-hour incubation in 100 μL 6 M guanidinium chloride followed by elution from the spin-filter. The eluted proteins were loaded onto a 3 kDa MWCO filter unit for filter-assisted unfolding, reduction, alkylation, and trypsin digestion. In brief, samples were washed twice in 8 M urea, once in 8 M urea with 50 mM DTT, once in 8 M urea with 50 mM iodoaceteamide, and twice in 8 M Urea. The filter units were dried by centrifugation (14,000 g in 30 minutes) after every addition. Trypsin digestion was carried out with 0.25 μg sequencing grade trypsin from Sigma Aldrich in 50 mM ammonium bicarbonate overnight at 37 °C. The tryptic peptides were collected by centrifugation, acidified with TFA (0.1%) and micro-purified using POROS R2 column material (Applied Biosystems) packed in P200 pipette tips (Sarstedt).
(§3) LC-MS/MS analyses were performed on an EASY-nLC II system (Thermo Fisher Scientific) connected to a TripleTOF 5600+ mass spectrometer (Sciex) equipped with a NanoSpray III source (Sciex) and operated under Analyst TF 1.6.0 control.
(§4) The micro-purified tryptic peptides were dissolved in 0.1% formic acid, injected and trapped on an in-house packed trap column (2 cm × 100 μm I.D) with RP ReproSil-Pur C18-AQ 3 μm resin (Dr. Maisch GmbH). Peptides were eluted from the trap column and separated on a 15 cm analytical column (75 μm i.d.) packed in-house in a pulled emitter with RP ReproSil-Pur C18-AQ 3 μm resin (Dr. Maisch GmbH). Elution from the analytical column was performed with a linear gradient from 5% to 35% phase B (90% acetonitrile with 0.1% formic acid) over 20 min for protein identification and 50 min for quantitative analysis, respectively.
(§5) All samples were analysed three times, yielding nine MS/MS experiments for each fibril for both plasma and CSF. For the area-based extracted ion chromatogram (XIC) quantification, the acquisition method was set up as an information-dependent acquisition (IDA) experiment collecting up to 25 MS/MS spectra in each 1.6 sec cycle using an exclusion window of 6 sec.
(§6) XIC quantification was based on the average ion intensity of the three most abundant peptides for each protein. Only proteins quantified in at least four out of nine MS/MS experiments per fibril were included in the quantification. The total ion scores were visualized after grouping the proteins according to function (Figure S11).
(§7) For each MS/MS experiment, the ion intensities of the individual proteins were normalized to the total ion intensity of that MS/MS experiment to achieve a relative protein composition. The contribution of each protein was averaged over all nine MS/MS experiments (Tables 1 and 2).

FAS4-AD aggregates [2] = test system: T2, FAS4-AD aggregates; experiment: as above; assay type: binding, human; design: key to Identification status of plasma protein bound: FAS4-AD: *: Identified, but not quantified; —: Not identified in any of the samples; conditions: for Identification status of plasma protein bound: FAS4-AD: symbol cells
T2 construct: aggregates of a mutated version of the FAS1-4 domain of TGFBIp
Procedure: as §1, §2, §3, §4, §5, §6, §7

C-36 fibrils [3] = target: T1, C-36 fibrils; experiment: Fibril incubation with CSF, quantitative MS/MS of bound proteins; assay type: binding; design: key to Identification status of CSF protein bound: C-36: *: Identified, but not quantified; —: Not identified in any of the samples; conditions: for Identification status of CSF protein bound: C-36: symbol cells
glucagon fibrils [4] = target: T3, glucagon fibrils (Homo sapiens, UniProt P01275); experiment: as above; assay type: binding; conditions: 4:1 w/w CSF protein:fibril
T3 construct: fibrils of the peptide hormone glucagon

Ab1 fibrils [5] = test system: T4, Ab1 fibrils; experiment: Fibril incubation with plasma, quantitative MS/MS of bound proteins; assay type: binding, human; conditions: 50:1 w/w plasma protein:fibril
T4 construct: Synthetic amyloid β peptide 1–40 was purchased from Caslo Aps (Lyngby, Denmark); purchased Caslo Aps (Lyngby, Denmark); host or cells: synthetic peptide
Procedure: Plasma and CSF solutions were centrifuged (40,000 g, 20 min) to remove any aggregates. The protein concentration was determined using 280 nm absorbance assuming 1 Abs = 1 mg/mL. […] Control samples (without fibril material) were prepared similarly. All samples were incubated at room temperature for one hour under gentle agitation. Fibrils and fibril-bound proteins were pelleted by centrifugation at 17,000 g for 30 minutes. The supernatant (175 μL) was removed and the aggregate was re-suspended in 175 μL PBS and pelleted again before further preparation for gel analysis and spin-filter assisted digest for quantitative MS/MS.
as §2, §3, §4, §5, §6, §7

glucagon fibrils [6] = target: T3, glucagon fibrils; experiment: as above; assay type: binding; conditions: 50:1 w/w plasma protein:fibril
Procedure: as §1, §2, §3, §4, §5, §6, §7

Ab2 fibrils [7] = test system: T5, Ab2 fibrils; experiment: as above; assay type: binding, human; conditions: 50:1 w/w plasma protein:fibril
T5 construct: Two structurally distinct fibrils of the Aβ(1–40) peptide associated with AD
Procedure: as §1, §2, §3, §4, §5, §6, §7

αSN fibrils [8] = target: T6, αSN fibrils (Homo sapiens, UniProt P37840); experiment: as above; assay type: binding; design: key to Identification status of plasma protein bound: αSN: *: Identified, but not quantified; —: Not identified in any of the samples; conditions: for Identification status of plasma protein bound: αSN: symbol cells
Procedure: as §1, §2, §3, §4, §5, §6, §7

Ab2 fibrils [9] = test system: T5, Ab2 fibrils; experiment: Fibril incubation with CSF, quantitative MS/MS of bound proteins; assay type: binding, human; conditions: 4:1 w/w CSF protein:fibril
Ab1 fibrils [10] = test system: T4, Ab1 fibrils; experiment: as above; assay type: binding, human; conditions: 4:1 w/w CSF protein:fibril
FAS4-AD aggregates [11] = test system: T2, FAS4-AD aggregates; experiment: as above; assay type: binding, human; design: key to Identification status of CSF protein bound: FAS4-AD: *: Identified, but not quantified; —: Not identified in any of the samples; conditions: symbol cells
αSN fibrils [12] = target: T6, αSN fibrils; experiment: as above; assay type: binding; design: key to Identification status of CSF protein bound: αSN: *: Identified, but not quantified; —: Not identified in any of the samples; conditions: for Identification status of CSF protein bound: αSN: symbol cells

T1 sequence (P01009 383-418 limits assumed): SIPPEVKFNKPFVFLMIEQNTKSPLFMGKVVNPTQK
T3 sequence (P01275 53-81 limits assumed): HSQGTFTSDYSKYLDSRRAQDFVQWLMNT

Molecule | Identification status of plasma protein bound: C-36 (C-36 fibrils [1]) | Identification status of plasma protein bound: FAS4-AD (FAS4-AD aggregates [2]) | Identification status of CSF protein bound: C-36 (C-36 fibrils [3]) | Relative composition of CSF proteins bound: Glucagon (glucagon fibrils [4]) | Relative composition of plasma proteins bound: Ab1 (Ab1 fibrils [5]) | Relative composition of plasma proteins bound: Glucagon (glucagon fibrils [6]) | Relative composition of plasma proteins bound: Ab2 (Ab2 fibrils [7]) | Identification status of plasma protein bound: αSN (αSN fibrils [8]) | Relative composition of CSF proteins bound: Ab2 (Ab2 fibrils [9]) | Relative composition of CSF proteins bound: Ab1 (Ab1 fibrils [10]) | Identification status of CSF protein bound: FAS4-AD (FAS4-AD aggregates [11]) | Identification status of CSF protein bound: αSN (αSN fibrils [12]) | Relative composition of plasma proteins bound: C-36 (C-36 fibrils [1]; 50:1 w/w plasma protein:fibril) | Relative composition of plasma proteins bound: FAS4-AD (FAS4-AD aggregates [2]; 50:1 w/w plasma protein:fibril) | Relative composition of CSF proteins bound: C-36 (C-36 fibrils [3]; 4:1 w/w CSF protein:fibril) | Relative composition of plasma proteins bound: αSN (αSN fibrils [8]; 50:1 w/w plasma protein:fibril) | Relative composition of CSF proteins bound: αSN (αSN fibrils [12]; 4:1 w/w CSF protein:fibril)
B1 | * | — | * | 1.4 ± 0.5 % of total protein | 1.0 ± 0.1 % of total protein | 1.0 ± 0.1 % of total protein | 1.1 ± 0.1 % of total protein | * | 3.0 ± 0.2 % of total protein | 2.5 ± 0.1 % of total protein | — | * |  |  |  |  | 
B2 | — | — | * | 0.1 ± 0.0 % of total protein | 2.5 ± 0.1 % of total protein | 0.4 ± 0.0 % of total protein | 1.8 ± 0.1 % of total protein | — | 0.6 ± 0.2 % of total protein | 0.4 ± 0.1 % of total protein | — | — |  |  |  |  | 
B3 |  |  |  | 0.5 ± 0.1 % of total protein | 2.7 ± 0.1 % of total protein | 1.9 ± 0.2 % of total protein | 3.5 ± 0.5 % of total protein |  | 0.5 ± 0.0 % of total protein | 1.2 ± 0.1 % of total protein | — |  | 2.4 ± 0.4 % of total protein | 1.6 ± 0.2 % of total protein | 1.0 ± 0.1 % of total protein | 3.8 ± 0.6 % of total protein | 1.5 ± 0.2 % of total protein
